In patent US20240254246A1 (PROMETHEUS BIOSCIENCES, published 2024):
Like-named read-outs stand apart in the source and are kept apart here.

Tests used:
recombinant human CD30L [1] = target: T1, recombinant human CD30L (human, UniProt P32971 63-234); experiment: KinExA, Fab in solution
T1 construct: Purified recombinant protein of ELISA, BLI, Carterra and KinExA; also called rhCD30L; huCD30L
T1 sequence (looked up): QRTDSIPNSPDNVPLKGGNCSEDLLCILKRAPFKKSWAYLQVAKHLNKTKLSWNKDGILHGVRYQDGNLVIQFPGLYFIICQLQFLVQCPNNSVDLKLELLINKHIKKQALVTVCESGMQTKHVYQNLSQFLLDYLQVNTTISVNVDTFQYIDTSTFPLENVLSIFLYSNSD
Text: (§1) For each experiment, CD30L antigen is titrated in a background of the Fab and allowed to reach equilibrium. The solutions are then briefly exposed to the solid phase and a portion of free Fab is captured. The captured Fab is then labeled with a fluorescent secondary molecule. The short contact time with the solid phase is less than the time needed for dissociation of the pre-formed complex in solution, thus competition between the solution and the solid phase titrated binding partner is kinetically excluded.
(§2) The signals generated from the captured Fab, which are directly proportional to the concentration of free Fab in the equilibrated samples, are used to determine the KD value. The KinExA Pro software performs a least squares analysis on the measured data to fit optimal solution for the KD and the activity of the Fab to a curve representative of a 1:1 reversible bi-molecular interaction.

recombinant human CD30L [2] = target: T1, recombinant human CD30L; experiment: KinExA, calculated as KD x kon
Experimental: (§3) To more precisely define and compare the binding affinities (dissociation equilibrium constant, KD), the association rate constant (on rate, kₒₙ), and the dissociation rate constant (off rate, koff), the kinetic exclusion assay (KinExA) was performed. KinExA measures the equilibrium binding affinity and kinetics between unmodified binding molecules in solution. For affinity analysis, the equilibrium dissociation constant, KD, is experimentally determined and reflects the strength of the binding interaction. The rate of association, kₒₙ, is also experimentally determined, while the rate of dissociation, koff, is calculated based on the equation: koff=Kd×kₒₙ.

recombinant human CD30L [3] = target: T1, recombinant human CD30L; experiment: ELISA, binding to rhCD30L (OD 450 nm)
recombinant human CD30L [4] = target: T1, recombinant human CD30L; experiment: recombinant blocking ELISA; competitor CD30
recombinant human CD30L [5] = target: T1, recombinant human CD30L; experiment: BLI, CD30 association to CD30L held by captured IgG; competitor rhCD30
Experimental: Briefly, individual anti-human biosensors were loaded with purified IgG (normalized to 10 μg/mL) and a baseline was measured for each biosensor. Biosensors were saturated with biotin and with polyclonal hulgG and a baseline was measured. Loaded biosensors were then allowed to bind CD30L and the association rate was measured for the binding. Biosensors were moved to buffer wells to measure the dissociation rate.

[6] = target: T2, human CD30L expressed on B16 cells (human, UniProt P32971 1-234); experiment: flow cytometry, binding to B16 cells expressing human CD30L (MFI)
T2 construct: whole, on cells; B16 cell line transfected to express human CD30L; also called B16-huCD30L; B16-rhCD30L
T2 sequence (looked up): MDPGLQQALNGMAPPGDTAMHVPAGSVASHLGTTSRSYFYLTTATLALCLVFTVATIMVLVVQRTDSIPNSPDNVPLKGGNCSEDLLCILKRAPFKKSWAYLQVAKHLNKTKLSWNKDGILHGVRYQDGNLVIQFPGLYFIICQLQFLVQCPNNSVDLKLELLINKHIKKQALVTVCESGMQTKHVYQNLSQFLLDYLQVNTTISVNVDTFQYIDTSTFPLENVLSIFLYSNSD

recombinant mouse CD30L = target: T3, recombinant mouse CD30L (mouse, UniProt P32972 68-239); experiment: ELISA on recombinant protein
T3 construct: Purified recombinant protein; also called rmCD30L
T3 sequence (looked up): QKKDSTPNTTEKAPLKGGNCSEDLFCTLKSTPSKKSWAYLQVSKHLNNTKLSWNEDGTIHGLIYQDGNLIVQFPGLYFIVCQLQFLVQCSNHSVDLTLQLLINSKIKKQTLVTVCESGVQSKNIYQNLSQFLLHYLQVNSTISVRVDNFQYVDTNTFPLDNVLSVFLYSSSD

recombinant human CD30L [7] = target: T1, recombinant human CD30L; experiment: ELISA on recombinant protein
[8] = target: T4, recombinant cynomolgus CD30L (cynomolgus, UniProt A0A7N9CVX7 63-234); experiment: ELISA on recombinant protein
T4 construct: Purified recombinant protein; also called rcyCD30L; cyno CD30L
T4 sequence: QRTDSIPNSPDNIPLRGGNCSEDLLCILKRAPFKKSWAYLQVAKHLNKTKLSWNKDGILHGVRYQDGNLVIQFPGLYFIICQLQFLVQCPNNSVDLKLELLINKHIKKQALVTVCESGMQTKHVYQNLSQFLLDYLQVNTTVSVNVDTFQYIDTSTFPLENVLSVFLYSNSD

[9] = target: T2, human CD30L expressed on B16 cells; experiment: flow cytometry on B16 cells expressing hCD30L
recombinant human CD30L [10] = target: T1, recombinant human CD30L; experiment: ELISA, blocking of CD30-Fc on huCD30L; competitor CD30-Fc
[11] = target: T4, recombinant cynomolgus CD30L; experiment: ELISA, Binding to CD30L, immobilized cyno CD30L (Absorbance 450 nm)
[12] = target: T4, recombinant cynomolgus CD30L; experiment: ELISA, binding to purified rcyCD30L
[13] = target: T4, recombinant cynomolgus CD30L; experiment: ELISA, blocking of CD30-Fc on rcyCD30L; competitor CD30-Fc
recombinant human CD30L [14] = target: T1, recombinant human CD30L; experiment: ELISA, binding to rhCD30L (OD 450 nm); remark: listed apart in the source
[15] = target: T5, cynomolgus CD30L expressed on HEK293 cells (cynomolgus, UniProt A0A7N9CVX7 1-234); experiment: flow cytometry, blocking of CD30-Fc on HEK293-cyCD30L cells; competitor CD30-Fc
T5 construct: whole, on cells; also called HEK293-cyCD30L; HEK-cyCD30L
T5 sequence: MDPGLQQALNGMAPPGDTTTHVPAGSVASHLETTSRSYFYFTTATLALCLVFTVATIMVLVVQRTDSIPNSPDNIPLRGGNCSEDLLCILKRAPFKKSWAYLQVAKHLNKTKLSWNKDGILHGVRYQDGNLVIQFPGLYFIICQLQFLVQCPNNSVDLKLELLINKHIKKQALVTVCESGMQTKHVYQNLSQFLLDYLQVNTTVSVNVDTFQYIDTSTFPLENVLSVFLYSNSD

recombinant human CD30L [16] = target: T1, recombinant human CD30L; experiment: ELISA, Neutralization of CD30-Fc binding to immobilized human CD30L (Absorbance 450 nm)
[17] = target: T5, cynomolgus CD30L expressed on HEK293 …; experiment: cell-based or functional assay
[18] = target: T2, human CD30L expressed on B16 cells; experiment: cell-based or functional assay
[19] = target: T5, cynomolgus CD30L expressed on HEK293 …; experiment: flow cytometry, binding to HEK293-cyCD30L cells
[20] = target: T2, human CD30L expressed on B16 cells; experiment: flow cytometry, binding to B16-rhCD30L cells
recombinant human CD30L [21] = target: T1, recombinant human CD30L; experiment: ELISA, blocking of CD30-Fc binding to huCD30L (OD 450 nm)
[22] = target: T2, human CD30L expressed on B16 cells; experiment: flow cytometry, B16-huCD30L/CD30-Fc Neutralization: blocking of CD30-Fc binding to B16-huCD30L cells
recombinant human CD30L [23] = target: T1, recombinant human CD30L; experiment: ELISA, Binding to CD30L, immobilized human CD30L (Absorbance 450 nm)
recombinant human CD30L [24] = target: T1, recombinant human CD30L; experiment: ELISA, binding to purified rhCD30L
[25] = target: T5, cynomolgus CD30L expressed on HEK293 …; experiment: flow cytometry, Cell Binding to HEK293-cyCD30L (MFI)
[26] = target: T2, human CD30L expressed on B16 cells; experiment: cell-based or functional assay; remark: listed apart in the source
[27] = target: T5, cynomolgus CD30L expressed on HEK293 …; experiment: flow cytometry, HEK293-cyCD30L/CD30-Fc Neutralization: blocking of CD30-Fc binding to HEK293-cyCD30L cells
[28] = target: T4, recombinant cynomolgus CD30L; experiment: ELISA, Neutralization of CD30-Fc binding to immobilized cyno CD30L (Absorbance 450 nm)
[29] = target: T2, human CD30L expressed on B16 cells; experiment: cell-based or functional assay; remark: listed apart in the source
[30] = target: T2, human CD30L expressed on B16 cells; experiment: flow cytometry, blocking of CD30-Fc on B16-huCD30L cells; competitor CD30-Fc
recombinant human CD30L [31] = target: T1, recombinant human CD30L; experiment: KinExA, calculated as KD x kon; remark: listed apart in the source
Experimental: as §3

[32] = target: T4, recombinant cynomolgus CD30L; experiment: KinExA, calculated as KD x kon
Experimental: as §3
A KD analysis requires immobilization of one interaction partner to a solid phase which is then used as a probe to capture the other interaction partner, the constant binding partner (Fab). For each experiment, CD30L antigen is titrated in a background of the Fab and allowed to reach equilibrium. The solutions are then briefly exposed to the solid phase and a portion of free Fab is captured. The captured Fab is then labeled with a fluorescent secondary molecule. The short contact time with the solid phase is less than the time needed for dissociation of the pre-formed complex in solution, thus competition between the solution and the solid phase titrated binding partner is kinetically excluded.

recombinant human CD30L [33] = target: T1, recombinant human CD30L; experiment: KinExA, Fab in solution; remark: listed apart in the source
Text: as §1, §2

[34] = target: T4, recombinant cynomolgus CD30L; experiment: KinExA, Fab in solution
Text: as §1, §2

B1: Fab of the reference 1 (ref1) anti-CD30L (Fab, V domains shown)
VH: QVQLQESGPGLVKPSETLSLTCTVSGGSISSYIWSWIRQPAGKGLEWIGRIYASGNTNYNPSLKSRVTISVDTSKNQFSLKLSSMTAADTAVYYCARDYRVAGTYYYYYGLDVWGQGTTVTVSS
VL: QSALTQPASVSGSPGQSITISCTGTSSDVGVYDYVSWYQQHPGKAPKLMIYEVSNRPSGVSNRFSGSKSGNTASLTISGLQTEDEADYYCSSYTSRSTWVFGGGTKLTVL
notes: Fab
Kd (recombinant human CD30L [1]): 0.377 nM
kon (recombinant human CD30L [1]): 937000 M⁻¹ s⁻¹
koff (recombinant human CD30L [2]): 0.000353 s⁻¹

B2: anti-CD30L antibody clone 82 (antibody, V domains shown)
VH: EVQLVESGGGLVQPGGSLRLSCAVSGITFSNAWMSWVRQAPGKGLEWVGRIKSKTYGGTTDYAAPVKGRFIISRDDSKDTLYLQMNSLKTEDTAIYYCTTDPWNYVNYNYFMDVWGKGTTVTVSS
VL: DIQMTQSPSSLSASVGDRVTITCRASQDIRNYLAWYQQKPGKITHLLVYAASTLQSGVPSRFSGSGSGTDFTLTINSLQPEDVATYYCQNYFSVPLTFGGGTKVEIK
notes: purified recombinant IgG (held by anti-human biosensors); mouse strain #1
EC50 (read off the curve) (recombinant human CD30L [3]): ~0.1 nM
IC50 (recombinant human CD30L [4]): 3.51 nM
rhCD30L:rhCD30 Blocking (recombinant human CD30L [5]): 0.071
EC50 (read off the curve) [6]: ~3 nM
rmCD30L (+) ELISA (recombinant mouse CD30L): 0.048
rhCD30L (+) ELISA (recombinant human CD30L [7]): 1.41
rcyCD30L (+) ELISA [8]: 0.982
hCD30L B16 (+) FLOW [9]: 8.42e+06

B3: anti-CD30L antibody clone 2 germlined (antibody, V domains shown)
VH: EVQLVESGGGLVQPGRSLRLSCAASGFNFDDYAMHWVRQAPGKGLEWVSGISWRSGNIGYADSVKGRFTISRDNAKNSLYLQMNSLRAEDTALYYCAKDKGIGFNWNYEGFDYWGQGTLVTVSS
VL: DIQMTQSPSSLSASVGDRVTITCRASQGISNHLAWFQQKPGKAPKSLIYAASSLQSGVPSRFSGSGSGTDFTLTISSLQPEDFATYYCQQYVTYPLTFGGGTKVEIK
notes: also called germlined clone 2
IC50 (recombinant human CD30L [10]): 1.92 nM
EC50 (read off the curve) [11]: ~0.03 nM
EC50 [12]: 0.05 nM
IC50 [13]: 1.53 nM
EC50 (read off the curve) (recombinant human CD30L [14]): ~0.1 nM
IC50 [15]: 0.34 nM
IC50 (read off the curve) (recombinant human CD30L [16]): ~2 nM
Inhibition of IL-8 release in a dual cell assay (HEK293-cyCD30L cells + K299 cells) IC50 [17]: 0.41 nM
Inhibition of IL-8 release in a dual cell assay (B16-huCD30L cells + K299 cells) IC50 [18]: 0.89 nM
EC50 [19]: 0.33 nM
EC50 [20]: 0.64 nM
IC50 (read off the curve) (recombinant human CD30L [21]): ~2 nM
IC50 (read off the curve) [22]: ~0.4 nM
EC50 (read off the curve) (recombinant human CD30L [23]): ~0.03 nM
EC50 (recombinant human CD30L [24]): 0.03 nM
EC50 (read off the curve) [25]: ~0.3 nM
IC50 (read off the curve), IL-8 release, Dual Assay K299 + B16-huCD30L [26]: ~1 nM
IC50 (read off the curve) [27]: ~0.3 nM
IC50 (read off the curve) [28]: ~2 nM
IC50 (read off the curve), IL-8 release, dual cell assay (B16-huCD30L cells + K299 cells) [29]: ~1 nM
IC50 [30]: 0.67 nM

B4: Fab of clone 2 germlined (Fab, V domains shown)
VH: EVQLVESGGGLVQPGRSLRLSCAASGFNFDDYAMHWVRQAPGKGLEWVSGISWRSGNIGYADSVKGRFTISRDNAKNSLYLQMNSLRAEDTALYYCAKDKGIGFNWNYEGFDYWGQGTLVTVSS
VL: DIQMTQSPSSLSASVGDRVTITCRASQGISNHLAWFQQKPGKAPKSLIYAASSLQSGVPSRFSGSGSGTDFTLTISSLQPEDFATYYCQQYVTYPLTFGGGTKVEIK
notes: Fab; also called Fab of a representative anti-CD30L, clone 2 germlined
koff (recombinant human CD30L [31]): 0.000141 s⁻¹
koff [32]: 0.000378 s⁻¹
Kd (recombinant human CD30L [33]): 0.0905 nM
kon (recombinant human CD30L [33]): 1.55e+06 M⁻¹ s⁻¹
Kd [34]: 0.122 nM
kon [34]: 3.1e+06 M⁻¹ s⁻¹
